What all share (settings): both partners purified
For assay [1], the target named is T1, GABARAP Y25H mutant (ITC sample) (human, UniProt O95166 1-117, Y25H).
T1 construct: GABARAP, human ATG8 protein, with Y25H
Kind of assay: ITC; PCM1 LIR peptide 0.4 mM titrated into 0.025 mM LC3 or GABARAP protein in 21 steps; 25 °C; 50 mM Tris-HCl pH 7.4, 100 mM NaCl; one-site binding model. Background: Isothermal titration calorimetry measures the heat released or taken up as one component is titrated into another.

In assay [2] the target is T2, GABARAP wild type (ITC sample) (human, UniProt O95166 1-117).
T2 construct: GABARAP, human ATG8 protein; also called GABARAP-wt; GABARAP WT
The description is as above.

For assay [3], the target named is T3, GABARAPL2 wild type (ITC sample) (human, UniProt P60520 1-117).
T3 construct: GABARAPL2, human ATG8 protein; also called GABARAPL2 WT
The description is as above.

For assay [4], the target named is LC3B wild type (ITC sample) (human, UniProt Q9GZQ8 1-120). Described as above.
The target in assay [5] is LC3B H27Y mutant (ITC sample) (human, UniProt Q9GZQ8 1-120, H27Y). Described as above.
For assay [6], the target named is T4, GABARAP Y25H (ITC sample) (human, UniProt O95166 1-117, Y25 in GABARAP to H).
T4 construct: GABARAP, human, with Y25H, purified protein for ITC; also called mutation of invariant Y25 in GABARAP to H
Kind of assay: ITC; 0.4 mM PCM1 LIR peptide titrated into 0.025 mM LC3 and GABARAP proteins in 21 steps, 25 °C, 50 mM Tris-HCl pH 7.4, 100 mM NaCl, one-site binding model.

For the next assay, the target named is LC3B (ITC sample) (human, UniProt Q9GZQ8 1-120). Described as above.
Another assay addresses T5, GABARAP (ITC sample) (human, UniProt O95166 1-117).
T5 construct: GABARAP, human, purified protein for ITC
Described as above.

In the next assay the target is T6, GABARAPL2 (ITC sample) (human, UniProt P60520 1-117).
T6 construct: GABARAPL2, human, purified protein for ITC
The description is as above.

A further assay addresses LC3B H27Y (ITC sample) (human, UniProt Q9GZQ8 1-120, H27 in LC3B to Y). Described as above.

The Kd is a measure of binding affinity in units of concentration. Lower therefore signals tighter binding. By stoichiometry N is commonly meant a count of units in the complex or per binding partner.

T1 sequence (O95166 whole entry Y25H): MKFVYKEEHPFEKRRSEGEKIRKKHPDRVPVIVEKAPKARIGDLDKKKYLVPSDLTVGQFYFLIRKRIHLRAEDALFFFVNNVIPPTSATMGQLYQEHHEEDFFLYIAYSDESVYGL
T2 sequence (O95166 whole entry): as the sequence (O95166 whole entry Y25H) above, with H25Y counted along it
T3 sequence (P60520 whole entry): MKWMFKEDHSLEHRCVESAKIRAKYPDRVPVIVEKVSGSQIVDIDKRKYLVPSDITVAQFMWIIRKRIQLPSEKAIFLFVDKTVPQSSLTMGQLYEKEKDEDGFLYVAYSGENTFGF
T4 sequence (O95166 whole entry Y25H): as the sequence (O95166 whole entry Y25H) above
T5 sequence (O95166 whole entry): as the sequence (O95166 whole entry Y25H) above, with H25Y counted along it
T6 sequence (P60520 whole entry): as the sequence (P60520 whole entry) above

B1: Human PCM1 LIR-contained peptide (residues 1958-1976) (peptide)
peptide: SDEEDFVKVEDLPLKLTIY
notes: pericentriolar material 1 (PCM1), human, residues 1958-1976; core LIR FVKV; also called PCM1 LIR peptide; PCM LIR peptide; source: synthetic peptide, bought: GenScript Inc
As for B1, the Ka in [1] was found to be 17900 M⁻¹; in assay [2] it was 157000 M⁻¹; in assay [3] it was 311000 M⁻¹; in assay [4] it was 13200 M⁻¹; in assay [5], 40200 M⁻¹. Also, the Kd in assay [1] was determined as 56 µM; in [5], 25 µM. Also, the “stoichiometry N” value turned out to be 1 in assay [1]; 0.94 ± 0.04 in assay [2]; 0.98 ± 0.02 in assay [3]; 1 in [4]; 1 in assay [5].

B2: Human PCM1 LIR-contained peptide (peptide)
peptide: SDEEDFVKVEDLPLKLTIY
notes: PCM1, human, residues 1958-1976 with the core LIR FVKV; also called PCM1 LIR peptide; PCM LIR peptide; source: synthetic peptide, bought: GenScript Inc
For B2, the binding result (in assay [6]; with LC3B H27Y (ITC sample)) was “binds” each time. Besides, the dissociation constant Kd with LC3B (ITC sample) is 76 µM; with GABARAP (ITC sample), 6.4 µM; with GABARAPL2 (ITC sample) it was 3.2 µM.

For the origin of these results see paper PMC6744468, “Selective autophagy maintains centrosome integrity and accurate mitosis by turnover of centriolar satellites” (Nature Communications, 2019).
